Results reported in PMC1533836.

Molecular target: APNAnq 100 (100-kDa aminopeptidase N from Anopheles quadrimaculatus brush border membrane) (Anopheles quadrimaculatus)
Test: SPR

Bacillus thuringiensis Cry11Ba toxin (trypsin-activated) (from UniProt Q45730 1-724) (natural protein)
koff: 1.03e-07 s⁻¹ | kon: 184 M⁻¹ s⁻¹
